Patent publication US20250382355A1

B1: 11F8 VHH-Fc (Fc fusion)
chain: QVQLVESGGGLVQAGGSLRLSCAASGRTVGYYAVGWFRQAPGKERDFVAAISWSGRNTNYADSVTGRFTIFRDNAKNTVDLQMNSLKPEDTAVYYCAADYWNYGSGSEVPNNYDTWGQGTQVTVSS
B2: 19B8 VHH-Fc (Fc fusion)
chain: QVQLVESGGGLVQAGGSLRLSCAASGRTFTNYAMGWFRQAPGKEREFVAAISWSGGGTNYADSVKGRFTISRDNAKNTVYLQMNSPKPEDTAVYYCATTLGYYGSSSRLYEYWGQGTQVTVSS
B3: 9B2 VHH-Fc (Fc fusion)
chain: QVQLVESGGGLVQPGGSLRLSCAASGFTLDNYAIGWFRQAPGKEREGVSCISSSDGDTQYADSVKGRFTISRDNAKNTVYLQMNSLKPEDTAVYYCAVEKVYARSWFFHLCSELDFGSWGQGTQVTVSS
B4: 10B8 VHH-Fc (Fc fusion)
chain: QVQLVESGGGLVQPGGSLRLSCAASGITLDYYAIAWFRQAPGKEREGVSCFCSSDGDIRYADSVKGRFTISRDNAKNTVYLQMNSLKPEDTAVYYCATERVYSSTWFFHRYSELDFGSWGRGTQVTVSS
B5: 19E10 VHH-Fc (Fc fusion)
chain: QVQLVESGGGLVQPGGSLRLSCVASGSTISINSMGWYRQAPGKAREMVATITNDGPIKYADPVKGRFTISRDNPKNTVYLQMNSLKPEDTAVYYCVADRAYWLAGEWEYWGQGTQVTVSS
B6: 8E9 VHH-Fc (Fc fusion)
chain: QVQLVESGGGLVEAGGSLRLSCVASGSSSSINAMGWYRQAPGKQRELVASISHDGETKYANSVKGRFTISRGNAKNTIYLQMNSLKPEDTAVYYCVGDVAWVVVAGEYDYWGQGTQVTVSS
B7: 3D4 VHH-Fc (Fc fusion)
chain: QVQLVESGGGLVQPGGSLRLSCAASGFTLDLNSIGWFRQAPGKEREGVSCISPSGSRMHYADSVKGRFTISRDNAKNTVYLQMNSLKPEDTAVYYCATGSPSYHYCSMYGLEYDSWGQGTQVTVPS
B8: 19C10 VHH-Fc (Fc fusion)
chain: QVQLVESGGGLVQPGGSLRLSCAASGFTLDLNSIGWFRQAPGKEREGVSCISPSASSTHYADSVKGRFTISRDNAKNTVYLQMNSLKPEDTAVYYCATGTPSYHYCSMYGLEYDDWGQGTQVTVSS
B9: 5A6 VHH-Fc (Fc fusion)
chain: QVQLVESGGGLAQAGGSLRLSCATSGLTFSMSAMGWFRQAPGNEREFVGVINWNGGSSRYADSVRGRFTISRDNAKNTVYLQMNSLKPEDTGVYYCAADALNIGTGEVNPRLYDYWGQGTQVMVSS
B10: 15H1 VHH-Fc (Fc fusion)
chain: QVQLVESGGGLAQAGGSLRLSCASSGLIFSGSAMGWFRQAPGKEREFVGVISWNGRTTYADSVKGRFTISRDDAVNMVWLQMNNLKPEDTAVYYCAADHLNYGSGDVNPRTYDYWGQGTQVTVSS
B11: 13C8 VHH-Fc (Fc fusion)
chain: QVQLVESGGGLVQAGGSLRLSCAASGRTVNKYMTGWFRQTPGKEREFVASIDWSSTTTHYANSVKGRFTISRDKVKNTVYLQMNGLKPEDTAVYYCAAHQDSSYGYTILPIDYDSWGQGTQVTVSS
B12: 1A11 VHH-Fc (Fc fusion)
chain: QVQLVESGGGLVQAGGSLRLSCEVSGSIYSINSMGWYRQAPGKQRELVAGIVSDGRINYADSVKGRFTISRAKNTVYLQMNSLKPEDTAVYYCAADRAFVYAGDYDYLGQGTQVTVSS
B13: 1E4 VHH-Fc (Fc fusion)
chain: QVLLVESGGGLVQAGGLLRLACSASGRTFTENVMGWFRQAPGKEREFVAAINWNTGSTYYSDSRKGRFTISKDNAKNTMFLQINNLKPEDTAVYYCGGTSSSYYYIGEFIPDYWGQGTQVTVSS
B14: 7A9 VHH-Fc (Fc fusion)
chain: QVQLVESGGGLVQAGGSLRLSCSASGGTASRSAMGWFRQAPGKEREFVAGISRRNSGSTYVADSYEDSVKGRFTISRDNAKNTIYLQMNSLKPEDTAVYYCAAEPTLGWYVPRRSVEYEYWGQGTQVTVSS
B15: 5D7 VHH-Fc (Fc fusion)
chain: QVQLVESGGGLVQAGGSLRLSCAASGRTGSRYIMGWFRQAPGKEREFVAAINWRGDSTYYADSVKGRFTIARDNAKNTAYLQMNSLKPEDTAVYYCVADRGESYYYTRSTEYTYWGQGTQVTVSS
B16: 15H7 VHH-Fc (Fc fusion)
chain: QVQLVESGGRLVQAGGSLRLSCAAPGRTFRNLTLGWFRQAPGKEREFVASTSWPDDEMTYYTDSVKGRFTISRDNAKNTVYLQMNSLKPEDTAVYYCAAASWSGRSTLSYDYDYWGQGTQVTVST

Target: SARS-CoV-2 WT spike on rVSV-deltaG-Luc pseudovirus (SARS-CoV-2), P0DTC2
Test: cell-based or functional assay

Binder	pseudovirus neutralization IC50
B1	1.07 nM
B2	53.5 nM
B3	1.93 nM
B4	0.68 nM
B5	1.53 nM
B6	12.4 nM
B7	1.22 nM
B8	1.49 nM
B9	8.57 nM
B10	5.04 nM
B11	6.69 nM
B12	0.57 nM
B13	0.31 nM
B14	110 nM
B15	6.52 nM
B16	1.33 nM
